Test results as given in the RNAGym collection of RNA variant scans (doi:10.7554/elife.80360).

B1: CPEB3 Ribozyme (parent)
chain: GGGGGCCACAGCAGAAGCGUUCACGUCGCGGCCCCUGUCAGAUUCUGGUGAAUCUGCGAAUUCUGCUGU

Variants of: B1
Assay: self-cleavage, relative activity (ratio to wild type); higher = more cleavage; co-transcriptional
Work on C45A C54A yielded a self-cleavage of 0.603.
In the case of U46C C57U, the self-cleavage is reported as 0.279.
For U46C C57G, the self-cleavage was 0.361.
With G47A C63G the self-cleavage was 0.922.
G47A C63U gave a self-cleavage of 1.02.
C45A C63G showed a self-cleavage of 0.813.
In the case of C45A C63U, the self-cleavage is reported as 1.02.
Variant U46C C66U has a self-cleavage of 0.959.
Work on U46G U67C yielded a self-cleavage of 0.979.
For U43C U55G, the self-cleavage was 0.388.
U44C U64C gave a self-cleavage of 0.565.
Variant G47C C66U has a self-cleavage of 1.
With G47A G50A the self-cleavage was 0.959.
Work on G47A G50C yielded a self-cleavage of 1.
For G47A U62G, the self-cleavage was 0.959.
Work on C45G A52U yielded a self-cleavage of 0.998.
Variant C45G A52G has a self-cleavage of 0.989.
In the case of C45A A52G, the self-cleavage is reported as 0.97.
Variant C45A A52C has a self-cleavage of 0.908.
Work on U46G G50C yielded a self-cleavage of 0.941.
With U46A U62A the self-cleavage was 0.937.
C45A C57A showed a self-cleavage of 0.359.
With C45A C57U the self-cleavage was 0.374.
U44G U64A showed a self-cleavage of 0.662.
Variant C45U G58C has a self-cleavage of 1.01.
With C45U G58A the self-cleavage was 0.972.
C45U G58U showed a self-cleavage of 1.01.
For U46C G47U, the self-cleavage was 1.02.
Variant U43C C63U has a self-cleavage of 0.914.
For U43C A51U, the self-cleavage was 0.944.
For U43C A51G, the self-cleavage was 0.964.
In the case of U44C U46G, the self-cleavage is reported as 0.98.
In the case of U44A A51G, the self-cleavage is reported as 0.936.
With U44A A51C the self-cleavage was 0.939.
With U46G G68A the self-cleavage was 1.01.
With U43C U44G the self-cleavage was 0.904.
In the case of U46G G56A, the self-cleavage is reported as 0.941.
Variant U43G U44G has a self-cleavage of 0.83.
U44G A52C showed a self-cleavage of 0.976.
U44A A60G showed a self-cleavage of 0.725.
Work on G47A C54U yielded a self-cleavage of 0.972.
Work on U46A U49C yielded a self-cleavage of 0.666.
Variant U46A U49G has a self-cleavage of 0.922.
Variant G47C G50A has a self-cleavage of 0.965.
With U43G U69A the self-cleavage was 0.954.
U43G U69C gave a self-cleavage of 1.03.
Variant U44C G50A has a self-cleavage of 0.939.
U44A U61G showed a self-cleavage of 0.645.
In the case of G47A C66A, the self-cleavage is reported as 0.916.
U46G C54U showed a self-cleavage of 0.992.
U46G C54A showed a self-cleavage of 0.845.
Work on C45A U53C yielded a self-cleavage of 0.804.
In the case of C45A U53G, the self-cleavage is reported as 0.863.
With C45U U61G the self-cleavage was 0.897.
U46G G48A gave a self-cleavage of 1.01.
For U46G G48U, the self-cleavage was 1.01.
Variant U46G G48C has a self-cleavage of 0.994.
Variant U44G C45G has a self-cleavage of 0.855.
In the case of U44G C45U, the self-cleavage is reported as 0.945.
U43G U62C showed a self-cleavage of 0.437.
U43G U62A showed a self-cleavage of 0.529.
With G47A G56C the self-cleavage was 0.918.
Variant U43C G56U has a self-cleavage of 0.638.
In the case of C45U A59C, the self-cleavage is reported as 0.72.
Variant U43A U64G has a self-cleavage of 0.578.
In the case of C45A A51U, the self-cleavage is reported as 0.931.
Work on U43C C45A yielded a self-cleavage of 0.961.
In the case of U43C C45G, the self-cleavage is reported as 0.964.
U46C G56A gave a self-cleavage of 0.933.
With U46C G56C the self-cleavage was 0.785.
For U43C U62G, the self-cleavage was 0.783.
G47A G65A showed a self-cleavage of 0.936.
Variant U44C U62A has a self-cleavage of 0.728.
For U43C U53C, the self-cleavage was 0.855.
With U43C U53G the self-cleavage was 0.978.
C45A G50C gave a self-cleavage of 0.931.
C45A G50U showed a self-cleavage of 1.04.
With U43G U55C the self-cleavage was 0.312.
With U46A G65A the self-cleavage was 0.954.
With U46A G65C the self-cleavage was 0.601.
U43G G58A gave a self-cleavage of 0.881.
Work on U43C U61G yielded a self-cleavage of 0.562.
With U43C U61A the self-cleavage was 0.764.
Variant U43C U61C has a self-cleavage of 0.511.
Work on U44G G56A yielded a self-cleavage of 0.822.
Variant U44G G56C has a self-cleavage of 0.44.
Work on C45U C57U yielded a self-cleavage of 0.317.
For U46G A59C, the self-cleavage was 0.828.
U46A A59U showed a self-cleavage of 0.842.
Variant U46A has a self-cleavage of 1.
With U46C the self-cleavage was 0.986.
With U46G the self-cleavage was 0.994.
U44C U55G gave a self-cleavage of 0.372.
Work on U44G U53G yielded a self-cleavage of 0.755.
With C45G U53A the self-cleavage was 0.921.
With U43C C54A the self-cleavage was 0.734.
U44A C45A showed a self-cleavage of 0.886.
C45G G47U gave a self-cleavage of 1.04.
C45G G47C gave a self-cleavage of 1.
U46C A51C gave a self-cleavage of 0.99.
For U44C C45G, the self-cleavage was 1.
C45U U67A gave a self-cleavage of 1.01.
With C45U U67G the self-cleavage was 1.02.
For C45U U64A, the self-cleavage was 0.88.
C45U U64C showed a self-cleavage of 0.905.
G47A G58U gave a self-cleavage of 0.995.
U44G U49C gave a self-cleavage of 0.901.
For U44G U49A, the self-cleavage was 0.935.
U46C U61G showed a self-cleavage of 0.856.
Variant U46C U61C has a self-cleavage of 0.788.
C45A U61C showed a self-cleavage of 0.697.
For U43G C57U, the self-cleavage was 0.385.
U43G C57G gave a self-cleavage of 0.308.
Variant C45U G47C has a self-cleavage of 0.998.
With U44G G48A the self-cleavage was 0.963.
U44G G48U gave a self-cleavage of 0.986.
In the case of G47A A59C, the self-cleavage is reported as 0.769.
For G47A A59G, the self-cleavage was 0.988.
Work on C45U C63U yielded a self-cleavage of 1.
With C45U C63G the self-cleavage was 0.816.
G47C G48C gave a self-cleavage of 1.05.
With G47C G48U the self-cleavage was 0.995.
With U43C U49G the self-cleavage was 0.949.
U43C U49A showed a self-cleavage of 0.988.
U44G U55G gave a self-cleavage of 0.574.
In the case of U44G U55A, the self-cleavage is reported as 0.432.
Variant C45U U53G has a self-cleavage of 0.9.
C45U U53A showed a self-cleavage of 0.936.
Variant G47U G48A has a self-cleavage of 1.03.
G47U A59U showed a self-cleavage of 0.833.
With U44C U67C the self-cleavage was 0.937.
For G47A A52U, the self-cleavage was 1.01.
Variant G47A A52C has a self-cleavage of 0.993.
Variant U43C A52G has a self-cleavage of 0.965.
In the case of U44A A52G, the self-cleavage is reported as 0.988.
U44A A52C showed a self-cleavage of 0.912.
For C45U G68A, the self-cleavage was 1.02.
Variant U46A G47C has a self-cleavage of 1.04.
Variant C45U G56A has a self-cleavage of 0.943.
U44A U64C gave a self-cleavage of 0.76.
In the case of U43C U69G, the self-cleavage is reported as 1.03.
Variant U43C U69C has a self-cleavage of 1.07.
For U46A C57A, the self-cleavage was 0.434.
Work on C45G U67G yielded a self-cleavage of 1.01.
Variant U43C G58C has a self-cleavage of 0.936.
With U44G U62G the self-cleavage was 0.777.
For U44G U62A, the self-cleavage was 0.908.
In the case of U43C G65U, the self-cleavage is reported as 0.568.
Work on U43C G65A yielded a self-cleavage of 0.732.
In the case of U43C C57U, the self-cleavage is reported as 0.394.
Variant G47C A60C has a self-cleavage of 0.366.
G47C A60G showed a self-cleavage of 1.01.
With G47C U62C the self-cleavage was 0.91.
U46A G50U gave a self-cleavage of 0.977.
U46C U49G showed a self-cleavage of 1.01.
U46C A60G gave a self-cleavage of 0.88.
In the case of C45U C66U, the self-cleavage is reported as 0.984.
In the case of G47C U69A, the self-cleavage is reported as 0.99.
In the case of G47C U69G, the self-cleavage is reported as 1.06.
C45G G65C showed a self-cleavage of 0.62.
G47C U64C showed a self-cleavage of 0.956.
G47U C63U showed a self-cleavage of 1.01.
With G47U C63A the self-cleavage was 0.944.
G47U C63G gave a self-cleavage of 0.905.
For U43G U53C, the self-cleavage was 0.874.
G47U A52C showed a self-cleavage of 1.02.
Work on G47U A52G yielded a self-cleavage of 0.987.
